Source: patent US20240117018A1

Tests used:
Experiment in all cases: cell-based or functional assay
[1] = target: CNE53 Env pseudovirus (HIV-1)
[2] = target: AC10.0.29 Env pseudovirus (HIV-1)
[3] = target: Q259.d2.17 Env pseudovirus (HIV-1)
[4] = target: BF1266.431a Env pseudovirus (HIV-1)
[5] = target: 263-8 Env pseudovirus (HIV-1)

B1: N49P23 (antibody, V domains shown)
VH: QVRLVQSGAGARKTGASMKLSCSTSGYTFTTHHGHFINWVRQARGQGLEWMGWMNPMTGQMNIEGKFQGRVTLTRDIYSDTAYMEMTRLTTGDTGTYYCARGDFGQNYPFHYWGQGSLVIVSS
VL: LSALTQPASVSGSPGQSVTISCSGTNRYLVSWYQQHPDKAPKLIIYDDNKRPSGISDRFSASRPDDTASLTISGLQTGDEATYWCASYERFGGGTRLTVLS
IC50 [1]: 0.026 µg/mL
IC80 [1]: 0.095 µg/mL
MPI [1]: 100
IC50 [2]: > 50 µg/mL
IC80 [2]: > 50 µg/mL
MPI [2]: 0
IC50 [3]: 0.362 µg/mL
IC80 [3]: 7.79 µg/mL
MPI [3]: 91
IC50 [4]: 0.083 µg/mL
IC80 [4]: 0.44 µg/mL
MPI [4]: 99
IC50 [5]: 0.012 µg/mL
IC80 [5]: 0.096 µg/mL
MPI [5]: 100

B2: N49P22 (antibody, V domains shown)
V domain 1: HIQLLQSGPQVKKSGDTVRISCETSGYNFVDSRIHWVRQTPEKRLRWMGWINPLQGGVNYAPEFQGRIRMTRDTFIDTVYVDLSGLTPADTAYYYCARGIDGKSYPFHFWGHGTRVTVFS
V domain 2: RFALTQPASVSGSPGQTITITCAGGSVSWFHFPPGKTPRLIIYESSKRPSGVSPRFSGSQSGSTASLIISGLQSDDEGTYFCSILEFFGRGTLVTVLS
IC50 [1]: 0.779 µg/mL
IC80 [1]: 5.11 µg/mL
MPI [1]: 93
IC50 [2]: > 50 µg/mL
IC80 [2]: > 50 µg/mL
MPI [2]: 0
IC50 [3]: > 50 µg/mL
IC80 [3]: > 50 µg/mL
MPI [3]: 15
IC50 [4]: > 50 µg/mL
IC80 [4]: > 50 µg/mL
MPI [4]: 0
IC50 [5]: 1.83 µg/mL
IC80 [5]: 18.5 µg/mL
MPI [5]: 89
